Reference: patent publication US20190338048A1 (published 2019)
Like-named read-outs stand apart in the source and are kept apart here.

How the values were obtained:
Assay in all cases: SPR
[1] = target: T1, His-tagged Influenza B Hemagglutinin (B/Brisbane/60/2008) (Influenza B (B/Brisbane/60/2008))
[2] = target: T2, His-tagged recombinant human CD-19 (human, UniProt P15391 20-291, limits assumed)
T2 sequence (looked up): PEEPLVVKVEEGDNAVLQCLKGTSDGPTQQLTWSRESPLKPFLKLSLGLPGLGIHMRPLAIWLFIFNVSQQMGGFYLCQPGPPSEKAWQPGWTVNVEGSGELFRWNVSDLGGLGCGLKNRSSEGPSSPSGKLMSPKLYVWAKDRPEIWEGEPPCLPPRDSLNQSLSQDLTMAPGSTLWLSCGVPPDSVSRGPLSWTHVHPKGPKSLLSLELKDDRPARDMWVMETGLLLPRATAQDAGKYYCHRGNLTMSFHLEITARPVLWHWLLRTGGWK

[3] = target: T2, His-tagged recombinant human CD-19; remark: listed apart in the source
[4] = target: T1, His-tagged Influenza B Hemagglutinin …; remark: listed apart in the source
[5] = target: Recombinant human IL-17A (human, UniProt Q16552 20-155, limits assumed)
Sequence of Recombinant human IL-17A (Q16552 20-155 limits assumed): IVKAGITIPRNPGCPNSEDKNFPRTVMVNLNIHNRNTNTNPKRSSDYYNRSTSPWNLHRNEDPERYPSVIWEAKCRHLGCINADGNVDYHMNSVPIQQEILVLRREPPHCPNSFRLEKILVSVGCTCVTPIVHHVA

B1: Design 4320 bispecific antibody, System C (CR8071 H1/L1 & SGN-CD19a H2/L2) (bispecific antibody)
chain 1: QVQLVQSGAEVKKPGASVRVSCRASGYIFTESGITWVRQAPGQGLEWMGWISGYSGDTKYAQKLQGRVTMTKDTSTTTAYMELRSLRYDDTAVYYCARDVQYSGSYLGAYYFDYWSPGTLVTVSSASTKGPSVFPLAPSSKSTSGGTAALGCKVKDYFPEPVTVSWNSGALTSGVHTGPAVLQSSGLYSLSSVVTVPSSSLGTQTYICNVNHKPSNTKVDKKVEPKSCDKTHTCPPCPAPELLGGPSVFLFPPKPKDTLMISRTPEVTCVVVDVSHEDPEVKFNWYVDGVEVHNAKTKPREEQYNSTYRVVSVLTVLHQDWLNGKEYKCKVSNKALPAPIEKTISKAKGQPREPQVYVYPPSRDELTKNQVSLTCLVKGFYPSDIAVEWESNGQPENNYKTTPPVLDSDGSFALVSKLTVDKSRWQQGNVFSCSVMHEALHNHYTQKSLSLSPG
chain 2: not shown
chain 3: not shown
chain 4: EIVLTQSPATLSLSPGERATLSCSASSSVSYMHWYQQKPGQAPRLLIYDTSKLASGIPARFSGSGSGTDFTLTISSLEPEDFAVYYCFQGSVYPFTFGQGTKLEIKRTVAAPSVFIFPPSDEKLKSGTASVVCALNNFYPREAKVQWKVDNALQSGNSQESVTEQDSKDSTYSLSSRLTLSKADYEKHKVYACEVTHQGLSSPVTKSFNRGEC
Kd [1]: 490 pM
Kd [2]: 258000 pM

B2: Design 2816 bispecific antibody, System C (CR8071 H1/L1 & SGN-CD19a H2/L2) (bispecific antibody)
chain 1: QVQLVQSGAEVKKPGASVRVSCRASGYIFTESGITWVRQAPGQGLEWMGWISGYSGDTKYAQKLQGRVTMTKDTSTTTAYMELRSLRYDDTAVYYCARDVQYSGSYLGAYYFDYWSPGTLVTVSSASTKGPSVFPLAPSSKSTSGGTAALGCLVKDYFPEPVTVSWNSGALTSGVHTFPAVLKSSGLYSLSSVVTVPSSSLGTQTYICNVNHKPSNTKVDKKVEPKSCDKTHTCPPCPAPELLGGPSVFLFPPKPKDTLMISRTPEVTCVVVDVSHEDPEVKFNWYVDGVEVHNAKTKPREEQYNSTYRVVSVLTVLHQDWLNGKEYKCKVSNKALPAPIEKTISKAKGQPREPQVYVYPPSRDELTKNQVSLTCLVKGFYPSDIAVEWESNGQPENNYKTTPPVLDSDGSFALVSKLTVDKSRWQQGNVFSCSVMHEALHNHYTQKSLSLSPG
chain 2: not shown
chain 3: not shown
chain 4: EIVLTQSPATLSLSPGERATLSCSASSSVSYMHWYQQKPGQAPRLLIYDTSKLASGIPARFSGSGSGTDFTLTISSLEPEDFAVYYCFQGSVYPFTFGQGTKLEIKRTVAAPSVFIFPPSDERLKSGTASVVCLLNNFYPREAKVQWKVDNALQSGNSKESVTEQDSKDSTYSLSSRLTLSKADYEKHKVYACEVTHQGLSSPVTKSFNRGEC
Kd [3]: 281000 pM
Kd [4]: 420 pM

B3: Design 2816 bispecific antibody, System A (CAT-2200 H1/L1 & Pertuzumab H2/L2) (bispecific antibody)
chain 1: not shown
chain 2: NFMLTQPHSVSESPGKTVTISCTRSSGSLANYYVQWYQQRPGSSPTIVIFANNQRPSGVPDRFSGSIDSSSNSASLTISGLKTEDEADYYCQTYDPYSVVFGGGTKLTVLGQPKAAPSVTLFPPSSEELQANKATLVCLISDFYPGAVTVAWKADSSPVKAGVETTTPSKQSNNKYAASSYLELTPEQWKSHRSYSCQVTHEGSTVEKTVAPTECS
chain 3: not shown
chain 4: DIQMTQSPSSLSASVGDRVTITCKASQDVSIGVAWYQQKPGKAPKLLIYSASYRYTGVPSRFSGSGSGTDFTLTISSLQPEDFATYYCQQYYIYPYTFGQGTKVEIKRTVAAPSVFIFPPSDERLKSGTASVVCLLNNFYPREAKVQWKVDNALQSGNSKESVTEQDSKDSTYSLSSRLTLSKADYEKHKVYACEVTHQGLSSPVTKSFNRGEC
Kd [5]: 510 pM
